In the experiment the target is IFP2.0 (Deinococcus radiodurans). The experiment can be described thus: SEC. For orientation: SEC sorts molecules by how far they enter the pores of the column.

Take IFP2.0: the stoichiometry N (usually the number of molecules, sites or subunits per partner or assembly) came out at 2.

The values above are taken from PMC4681293.
